In article doi:10.1101/2024.04.24.590854 (bioRxiv, 2024):

Biological target: reconstituted XPO1:RanGTP nuclear export receptor complex (human | yeast (ScRan), UniProt O14980 1-1071; P32835 1-179, Q71L)
Assay: fluorescence polarisation

Row | Kd [nM] | binding result | Binder
1 | 261 | – | {5(6)‑carboxyfluorescein}-SPLDNMIRRLSLAERAQGPR-NH2 [ETV6 P214L(203-222) peptide]
2 | – | binds | {5(6)‑carboxyfluorescein}-GLEGDLLEHISLTLSVSGLGA-NH2 [POU4F3 P125L(114-134) peptide]
